{"source": "patent US6602687B1", "about": "“DNA encoding human ciliary neurotrophic factor and method for producing the protein encoded thereby” (Regeneron Pharmaceuticals, Inc., priority 1989, dated 2003)", "key": {"[1]": {"system": "Ventral spinal cord neurons", "assay": "Neurofilament (NF) assay in ventral spinal cord neuron cultures", "type": "cell-based, rat", "settings": "CNTF 10 ng/ml, NGF 50 ng/ml at plating; day 7", "description": "Sprague-Dawley rats (HSD or Zivic-Miller) were used for all experiments. Pregnant rats (E14) were sacrificed as described in 10.1.1.\nSpinal cords were removed aseptically from rat embryos as described in 10.1.2. The cord tissues were minced into small pieces and incubated in 0.1% trypsin (GIBCO) and 0.01% deoxyribonuclease type 1 (Sigma) at 37° C. for 20 minutes. Trypsin solution was then removed, rinsed and replaced with medium consisting of 45% Eagle's minimum essential medium (MEM), 45% Ham's nutrient mixture F12 (F12), 5% fetal calf serum (GIBCO), 5% horse serum (GIBCO) glutamine (2 mM), penicillin G (0.5 U/ml), and streptomycin (0.5 ug/ml). […] Total cell number yielded was determined by hemocytometer counting in the presence of trypan blue. […]\nAfter fixation of the cells in 4% paraformaldehyde at 4° C. for 2 hours, the cultures were then permeabilized and blocked according to the procedures described in Doherty et al. (1984, J. Neurochem. 42:1116-1122). Neurofilament protein was detected using a monoclonal antibody RT97 (Wood and Anderton, 1981, Biosci. Rep. 1:263-268) at a 1:1000 dilution. The reaction product was visualized using O-phenylenediamine (OPD) as a substrate and optical density was measured at 490 nm."}, "[2]": {"system": "chick embryonic spinal motorneurons", "assay": "Survival of chick embryonic spinal motorneurons in culture", "type": "cell-based", "outline": "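Lumbar spinal motorneurons from embryonic day 6 chick, metrizamide-purified, plated at 1000-2000 cells/well on polyornithine/laminin in horse serum-containing L-15 at 37 °C, 5% CO2. Samples added 1 h after plating; survival scored as large phase-bright cell counts relative to initial counts taken at 3 h.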"}}, "note": "Read-outs that look alike come from different tables or passages of the source."}
{"molecule": "CNTF: ciliary neurotrophic factor; recombinant rat CNTF in Sections 10, 15, 17, purified rat sciatic nerve CNTF in Section 11; see endpoint conditions (protein, UniProt P20294 1-200, looked up) Ciliary neurotrophic factor: MAFAEQTPLTLHRRDLCSRSIWLARKIRSDLTALMESYVKHQGLNKNINLDSVDGVPVASTDRWSEMTEAERLQENLQAYRTFQGMLTKLLEDQRVHFTPTEGDFHQAIHTLMLQVSAFAYQLEELMVLLEQKIPENEADGMPATVGDGGLFEKKLWGLKVLQELSQWTVRSIHDLRVISSHQMGISALESHYGAKDKQM", "values": [{"measurement": "increase in NF content versus untreated controls", "setting": "[1]", "value": 2.0, "unit": "fold"}, {"measurement": "concentration at which the highest survival effect was obtained", "setting": "[2]; 3 days in culture", "value": 1, "unit": "ng/mL"}, {"measurement": "highest survival effect of the concentration-response curve", "setting": "[2]; 3 days in culture, CNTF = recombinant rat", "value": 64, "unit": "%"}, {"measurement": "Motoneuron survival (%)", "setting": "[2]; after 3 days in culture, mean ± SEM (n = 4), IGF-I 1 μg/ml, Basic FGF 30 ng/ml, CNTF 1.5 ng/ml", "value": "60.7 ± 5.8", "unit": "%"}, {"measurement": "Survival", "setting": "[2]; after 3 days in culture, one concentration per molecule, Table VI, CNTF rat, rec.", "value": "+ + +"}, {"measurement": "EC50", "setting": "[2]; motorneuron survival, 3 days in culture", "value": 0.023, "unit": "ng/mL"}, {"measurement": "EC50 (the concentration required for 50% survival)", "setting": "[2]; recombinant rat CNTF, day 3", "value": "about 20 pg/ml"}, {"measurement": "EC50", "setting": "[2]; recombinant rat CNTF, day 3, read-out: EC50 (the concentration required for 50% survival)", "value": "~1", "unit": "pM"}]}
